Biological target: HR2 peptide of the SARS-CoV-2 spike (H1159-K1211), His-SUMO removed (SARS-CoV-2) (UniProt P0DTC2)
Test: crystal structure

HR2 peptide of the SARS-CoV-2 spike (H1159-K1211), His-SUMO removed (from UniProt P0DTC2 1159-1211) (domain or fragment)
stoichiometry N: 3
